Laboratory results from paper PMC5379943 (The Journal of Cell Biology, 2017).

Target: T1, His-PLEKHM1 (1–300) (UniProt Q9Y4G2 1-300)
T1 construct: PLEKHM1, residues 1–300; also called His-tagged PLEKHM1 (1–300); source: purified
Test: pull-down; competition: GST-Arl8b as bait incubated with His-PLEKHM1 (1–300) and increasing concentrations of MBP-SKIP (1–300); immunoblot
Conditions: both partners purified

B1: GST-Arl8b (natural protein, UniProt Q9NVJ2 1-186, looked up)
chain: MLALISRLLDWFRSLFWKEEMELTLVGLQYSGKTTFVNVIASGQFSEDMIPTVGFNMRKVTKGNVTIKIWDIGGQPRFRSMWERYCRGVNAIVYMIDAADREKIEASRNELHNLLDKPQLQGIPVLVLGNKRDLPNALDEKQLIEKMNLSAIQDREICCYSISCKEKDNIDITLQWLIQHSKSRRS
notes: Arl8b small GTPase; source: E. coli BL21, purified on glutathione resin
  binding result: binds
